Experimental data published in the supplement of paper PMC9112550, “Optimization of the antimicrobial peptide Bac7 by deep mutational scanning” (BMC Biology, 2022).

System: Escherichia coli TOP10
Experiment: shrunken log2 fold change of peptide-encoding DNA abundance (4.5 h post-induction vs induction); higher = less antimicrobial activity (less host growth inhibition)
Details: time post-induction: 4.5 h; library: site-saturation at positions 5, 18, 19, 20
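Also: peptides expressed intracellularly from a pBAD plasmid library in pooled LB shake-flask culture, induced with 0.3% L-arabinose, DNA abundance read by NGS, three biological replicates, DESeq2 with apeglm shrinkage.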

Row | Sequence | shrunken log2 fold change
1 | RRIRYRPPRLPRPRPRPSSYPRP | -0.955
2 | RRIRRRPPRLPRPRPRPHGEPRP | 0.0136
3 | RRIRDRPPRLPRPRPRPYLHPRP | -0.119
4 | RRIRQRPPRLPRPRPRPTESPRP | 0.105
5 | RRIRKRPPRLPRPRPRPCFVPRP | -0.0847
6 | RRIRARPPRLPRPRPRPPFIPRP | -0.103
7 | RRIRHRPPRLPRPRPRPDHSPRP | -0.00651
8 | RRIRDRPPRLPRPRPRPNADPRP | 0.018
9 | RRIRFRPPRLPRPRPRPLMLPRP | -0.282
10 | RRIRKRPPRLPRPRPRPMSGPRP | -0.211
11 | RRIRPRPPRLPRPRPRPRVHPRP | -0.0821
12 | RRIRERPPRLPRPRPRPNCVPRP | -0.0533
13 | RRIRDRPPRLPRPRPRPQGKPRP | 0.00439
14 | RRIRFRPPRLPRPRPRPTDKPRP | 0.00702
15 | RRIRERPPRLPRPRPRPKFDPRP | 0.154
16 | RRIRHRPPRLPRPRPRPGHHPRP | -0.132
17 | RRIRKRPPRLPRPRPRPTEIPRP | 0.162
18 | RRIRCRPPRLPRPRPRPNKMPRP | -0.393
19 | RRIRDRPPRLPRPRPRPHTTPRP | -0.117
20 | RRIRWRPPRLPRPRPRPHLGPRP | 0.14
21 | RRIRFRPPRLPRPRPRPCNVPRP | -0.01
22 | RRIRERPPRLPRPRPRPCDQPRP | 0.0916
23 | RRIRTRPPRLPRPRPRPTYKPRP | -0.651
24 | RRIRCRPPRLPRPRPRPANQPRP | -0.137
25 | RRIRMRPPRLPRPRPRPLLFPRP | 0.908

Row | Sequence | shrunken log2 fold change
26 | RRIRVRPPRLPRPRPRPLEKPRP | 0.158
27 | RRIRNRPPRLPRPRPRPIMPPRP | -0.225
28 | RRIRNRPPRLPRPRPRPTDWPRP | 0.328
29 | RRIRFRPPRLPRPRPRPPKPPRP | 0.47
30 | RRIRLRPPRLPRPRPRPGMDPRP | 0.126
31 | RRIRTRPPRLPRPRPRPYTTPRP | -0.718
32 | RRIRDRPPRLPRPRPRPGWEPRP | 0.00884
33 | RRIRQRPPRLPRPRPRPKGWPRP | 0.502
34 | RRIRKRPPRLPRPRPRPTDLPRP | 0.0464
35 | RRIRGRPPRLPRPRPRPVCSPRP | 0.613
36 | RRIRQRPPRLPRPRPRPFARPRP | -0.0149
37 | RRIRMRPPRLPRPRPRPLEHPRP | 0.0245
38 | RRIRTRPPRLPRPRPRPPKIPRP | -0.112
39 | RRIRRRPPRLPRPRPRPHDVPRP | 0.0619
40 | RRIRIRPPRLPRPRPRPATWPRP | -0.273
41 | RRIRMRPPRLPRPRPRPDGIPRP | 1.33
42 | RRIRIRPPRLPRPRPRPSMQPRP | -0.221
43 | RRIRQRPPRLPRPRPRPELMPRP | -0.0508
44 | RRIRRRPPRLPRPRPRPYPYPRP | -0.0951
45 | RRIRQRPPRLPRPRPRPLLGPRP | 0.158
46 | RRIRRRPPRLPRPRPRPVWQPRP | 0.395
47 | RRIRRRPPRLPRPRPRPGVQPRP | -0.00257
48 | RRIRGRPPRLPRPRPRPQWFPRP | 0.282
49 | RRIRPRPPRLPRPRPRPWNIPRP | -0.00871
50 | RRIRCRPPRLPRPRPRPWQIPRP | -0.153

Row | Sequence | shrunken log2 fold change
51 | RRIRIRPPRLPRPRPRPIFMPRP | -0.376
52 | RRIRPRPPRLPRPRPRPSIPPRP | -0.436
53 | RRIRIRPPRLPRPRPRPKNAPRP | -0.107
54 | RRIRWRPPRLPRPRPRPRTIPRP | -0.0129
55 | RRIRDRPPRLPRPRPRPEADPRP | 1.93
56 | RRIRSRPPRLPRPRPRPYMQPRP | -0.145
57 | RRIRFRPPRLPRPRPRPYYSPRP | -0.228
58 | RRIRPRPPRLPRPRPRPYNDPRP | -0.723
59 | RRIRGRPPRLPRPRPRPTVKPRP | 0.642
60 | RRIRIRPPRLPRPRPRPENWPRP | -0.00191
61 | RRIRGRPPRLPRPRPRPRCFPRP | 0.698
62 | RRIRTRPPRLPRPRPRPYLRPRP | -0.163
63 | RRIRPRPPRLPRPRPRPGEHPRP | -0.133
64 | RRIRGRPPRLPRPRPRPDTNPRP | 0.199
65 | RRIRWRPPRLPRPRPRPMVAPRP | 0.457
66 | RRIRRRPPRLPRPRPRPQQIPRP | -0.0299
67 | RRIRLRPPRLPRPRPRPALNPRP | -0.0159
68 | RRIRHRPPRLPRPRPRPQNMPRP | -0.731
69 | RRIRQRPPRLPRPRPRPEDDPRP | -0.14
70 | RRIRERPPRLPRPRPRPQTRPRP | 0.0866
71 | RRIRYRPPRLPRPRPRPYPGPRP | -0.379
72 | RRIRMRPPRLPRPRPRPYFYPRP | -0.53
73 | RRIRYRPPRLPRPRPRPQRGPRP | -0.123
74 | RRIRFRPPRLPRPRPRPDRFPRP | 0.042
75 | RRIRYRPPRLPRPRPRPREPPRP | 0.419

Row | Sequence | shrunken log2 fold change
76 | RRIRTRPPRLPRPRPRPILVPRP | -0.0468
77 | RRIRSRPPRLPRPRPRPVAQPRP | 0.101
78 | RRIRPRPPRLPRPRPRPFICPRP | -0.276
79 | RRIRPRPPRLPRPRPRPCPVPRP | -0.0845
80 | RRIRNRPPRLPRPRPRPLPLPRP | 0.187
81 | RRIRDRPPRLPRPRPRPIYMPRP | -0.106
82 | RRIRCRPPRLPRPRPRPLLSPRP | -0.306
83 | RRIRMRPPRLPRPRPRPIHFPRP | -0.0141
84 | RRIRDRPPRLPRPRPRPEITPRP | 0.0482
85 | RRIRERPPRLPRPRPRPNMDPRP | -0.209
86 | RRIRKRPPRLPRPRPRPCKHPRP | -0.11
87 | RRIRKRPPRLPRPRPRPNDSPRP | -0.042
88 | RRIRTRPPRLPRPRPRPPKQPRP | -0.00507
89 | RRIRVRPPRLPRPRPRPLRYPRP | -0.142
90 | RRIRSRPPRLPRPRPRPQRDPRP | -0.117
91 | RRIRHRPPRLPRPRPRPQTEPRP | -0.102
92 | RRIRPRPPRLPRPRPRPWSRPRP | 0.298
93 | RRIRIRPPRLPRPRPRPVFYPRP | -0.333
94 | RRIRNRPPRLPRPRPRPFAIPRP | -0.0909
95 | RRIRERPPRLPRPRPRPVLWPRP | 0.153
96 | RRIRWRPPRLPRPRPRPNIAPRP | -0.121
97 | RRIRGRPPRLPRPRPRPVMEPRP | 0.546
98 | RRIRERPPRLPRPRPRPDYLPRP | -0.612
99 | RRIRFRPPRLPRPRPRPCKDPRP | -0.198
100 | RRIRRRPPRLPRPRPRPQLAPRP | -0.0216

Row | Sequence | shrunken log2 fold change
101 | RRIRNRPPRLPRPRPRPMKCPRP | 0.0131
102 | RRIRARPPRLPRPRPRPHTDPRP | -0.111
103 | RRIRPRPPRLPRPRPRPLGMPRP | -0.0753
104 | RRIRMRPPRLPRPRPRPSVRPRP | -0.00857
105 | RRIRGRPPRLPRPRPRPHAQPRP | 0.868
106 | RRIRLRPPRLPRPRPRPHQMPRP | -0.199
107 | RRIRYRPPRLPRPRPRPIFNPRP | -0.89
108 | RRIRVRPPRLPRPRPRPCNYPRP | -0.119
109 | RRIRDRPPRLPRPRPRPLYCPRP | -0.333
110 | RRIRERPPRLPRPRPRPNYIPRP | -0.672
111 | RRIRARPPRLPRPRPRPLSRPRP | 0.203
112 | RRIRKRPPRLPRPRPRPKFDPRP | -0.146
113 | RRIRLRPPRLPRPRPRPKHWPRP | 0.31
114 | RRIRQRPPRLPRPRPRPLGRPRP | -0.00354
115 | RRIRTRPPRLPRPRPRPIWAPRP | -0.085
116 | RRIRDRPPRLPRPRPRPQPGPRP | 0.237
117 | RRIRHRPPRLPRPRPRPTMQPRP | -0.0838
118 | RRIRWRPPRLPRPRPRPDFTPRP | 0.15
119 | RRIRGRPPRLPRPRPRPANRPRP | 0.0838
120 | RRIRDRPPRLPRPRPRPQKAPRP | 0.0864
121 | RRIRPRPPRLPRPRPRPIWWPRP | 0.665
122 | RRIRLRPPRLPRPRPRPLPDPRP | 0.327
123 | RRIRPRPPRLPRPRPRPGDYPRP | -0.0215
124 | RRIRGRPPRLPRPRPRPRVAPRP | 0.816
125 | RRIRHRPPRLPRPRPRPLCFPRP | -0.243

Row | Sequence | shrunken log2 fold change
126 | RRIRIRPPRLPRPRPRPCFFPRP | -0.503
127 | RRIRNRPPRLPRPRPRPTIFPRP | -0.248
128 | RRIRERPPRLPRPRPRPTTQPRP | 0.299
129 | RRIRTRPPRLPRPRPRPMWYPRP | -0.602
130 | RRIRIRPPRLPRPRPRPIWCPRP | -0.00146
131 | RRIRFRPPRLPRPRPRPDNVPRP | -0.336
132 | RRIRIRPPRLPRPRPRPFRFPRP | -0.392
133 | RRIRRRPPRLPRPRPRPSYKPRP | -0.563
134 | RRIRMRPPRLPRPRPRPGPSPRP | 1.23
135 | RRIRHRPPRLPRPRPRPTYIPRP | -0.573
136 | RRIRRRPPRLPRPRPRPNKYPRP | 0.861
137 | RRIRGRPPRLPRPRPRPPRGPRP | 0.938
138 | RRIRERPPRLPRPRPRPMLAPRP | 0.193
139 | RRIRMRPPRLPRPRPRPEPWPRP | 1.3
140 | RRIRGRPPRLPRPRPRPFYKPRP | -0.0686
141 | RRIRKRPPRLPRPRPRPMVCPRP | 0.00938
142 | RRIRCRPPRLPRPRPRPKAEPRP | 0.173
143 | RRIRHRPPRLPRPRPRPVDGPRP | -0.00557
144 | RRIRERPPRLPRPRPRPTWFPRP | 0.118
145 | RRIRCRPPRLPRPRPRPERTPRP | 0.766
146 | RRIRKRPPRLPRPRPRPSQKPRP | 0.0284
147 | RRIRCRPPRLPRPRPRPRDDPRP | 0.274
148 | RRIRGRPPRLPRPRPRPMMSPRP | 0.136
149 | RRIRQRPPRLPRPRPRPNYYPRP | -0.611
150 | RRIRWRPPRLPRPRPRPRRIPRP | 0.109
